Reference: US20160185832A1 (University of Pennsylvania, published 2016)

B1: 6×His tagged CEP290 truncation M (aa 1695-1966), recombinantly expressed and purified (other)
chain: DQSQKESQCLKSELQAQKEANSRAPTTTMRNLVERLKSQLALKEKQQKALSRALLELRAEMTAAAEERIISATSQKEAHLNVQQIVDRHTRELKTQVEDLNENLLKLKEALKTSKNRENSLTDNLNDLNNELQKKQKAYNKILREKEEIDQENDELKRQIKRLTSGLQGKPLTDNKQSLIEELQRKVKKLENQLEGKVEEVDLKPMKEKNAKEELIRWEEGKKWQAKIEGIRNKLKEKEGEVFTLTKQLNTLKDLFAKADKEKLTLQRKLKT
notes: Expressed in E. coli BL21(DE3)pLysS, purified on Ni-NTA; also called region M; CEP290 region M; not shown: N-terminal 6×His tag from pDest-527
B2: GFP-tagged "Deleted" CEP290 truncation (part of the microtubule binding region deleted in the rd16 mouse) (other)
chain: DQSQKESQCLKSELQAQKEANSRAPTTTMRNLVERLKSQLALKEKQQKALSRALLELRAEMTAAAEERIISATSQKEAHLNVQQIVDRHTRELKTQVEDLNENLLKLKEALKTSKNRENSLTDNLNDLNNELQKKQKAYNKILREKEEIDQENDELKRQIKRLTSGLQGKPLTDNKQSLIEELQRKVKKLENQLEGKVEEVDLKPMKEK
notes: not shown: N-terminal GFP tag from pcDNA-DEST53 (Gateway)

Assays:
[1] = molecular target: T1, pure, pre-polymerized, taxol-stabilized microtubules of bovine tubulin (Cytoskeleton) (bovine, UniProt P81947 1-451; Q6B856 1-445, limits assumed); experiment: microtubule co-sedimentation, 1 nM purified 6×His truncation M with increasing microtubules, Coomassie gel, non-linear regression
T1 construct: Polymer of alpha/beta tubulin dimers, polymerized with GTP and stabilized with 10 µM taxol; also called MT; MTs
T1 sequence (P81947 whole entry, chain 1 of 2, the tested form may be a part): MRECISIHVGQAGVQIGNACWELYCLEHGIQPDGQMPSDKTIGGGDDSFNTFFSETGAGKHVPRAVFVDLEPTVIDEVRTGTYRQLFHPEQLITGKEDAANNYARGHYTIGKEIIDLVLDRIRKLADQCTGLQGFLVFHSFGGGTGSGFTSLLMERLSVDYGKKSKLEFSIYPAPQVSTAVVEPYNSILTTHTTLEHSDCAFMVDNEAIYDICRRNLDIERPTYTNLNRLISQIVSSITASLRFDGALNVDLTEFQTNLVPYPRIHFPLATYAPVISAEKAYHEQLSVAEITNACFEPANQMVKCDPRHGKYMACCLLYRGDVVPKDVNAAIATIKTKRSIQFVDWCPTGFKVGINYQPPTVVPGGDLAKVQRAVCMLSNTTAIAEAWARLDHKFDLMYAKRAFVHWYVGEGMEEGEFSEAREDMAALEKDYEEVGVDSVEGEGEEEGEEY
T1 sequence (Q6B856 whole entry, chain 2 of 2, the tested form may be a part): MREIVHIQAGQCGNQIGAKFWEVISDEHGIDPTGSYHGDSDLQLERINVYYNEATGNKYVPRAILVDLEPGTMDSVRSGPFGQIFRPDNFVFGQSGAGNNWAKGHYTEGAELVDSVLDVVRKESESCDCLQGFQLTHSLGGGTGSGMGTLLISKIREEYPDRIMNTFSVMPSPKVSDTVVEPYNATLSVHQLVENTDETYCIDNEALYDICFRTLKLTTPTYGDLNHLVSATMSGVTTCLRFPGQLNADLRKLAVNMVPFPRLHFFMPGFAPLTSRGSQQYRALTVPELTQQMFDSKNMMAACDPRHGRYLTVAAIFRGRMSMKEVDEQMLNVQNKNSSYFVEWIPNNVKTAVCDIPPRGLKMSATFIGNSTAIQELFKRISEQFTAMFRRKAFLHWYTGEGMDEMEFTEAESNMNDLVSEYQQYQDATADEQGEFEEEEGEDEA
Experimental: For the direct microtubule binding assay, 1 nM of recombinantly expressed and purified 6×His tagged CEP290 truncation M was incubated at 30° C. for 30 minutes with increasing amounts of pure, prepolymerized microtubules. Reactions were centrifuged and subjected to SDS-PAGE as above, and tubulin and CEP290 truncation M were detected by Coomassie blue staining.

[2] = molecular target: T1, pure, pre-polymerized, taxol-stabilized …; experiment: in vitro microtubule co-sedimentation of in vitro translated GFP fusions, western blot
Experimental: Crude TNT T7 reaction products were diluted 1:1 in BRB80 supplemented with 1 mM GTP and 10 μM taxol. The diluted products were then incubated at 30° C. for 30 minutes in either the presence or absence of pure, pre-polymerized microtubules. Reactions were then centrifuged through a 40% sucrose cushion at 48,000×g for 30 minutes, the supernatant was collected, and the pellet washed once with warm BRB80 and resuspended in 1×SDS PAGE sample buffer. Both fractions were subjected to SDS-PAGE and transferred to nitrocellulose. The presence of tubulin in the pellets was confirmed by Ponceau staining, and GFP-tagged CEP290 constructs were detected by immunoblotting.

Binder | Kd [1] | binding result [2]
B1 | ~100 nM | 
B2 |  | no binding
